Reference: patent US20220098269A1 (IMMATICS BIOTECHNOLOGIES, published 2022)

Molecular target: T1, HLA-A*24:02 (human)
T1 construct: Peptide-receptive MHC class I monomer after UV cleavage of a UV-sensitive ligand
Experiment: UV-ligand exchange, anti-b2m ELISA; peptide exchange yield grade
Text: (§1) Candidate peptides for T cell based therapies according to the present invention were further tested for their MHC binding capacity (affinity). The individual peptide-MHC complexes were produced by UV-ligand exchange, where a UV-sensitive peptide is cleaved upon UV-irradiation and exchanged with the peptide of interest as analyzed. Only peptide candidates that can effectively bind and stabilize the peptide-receptive MHC molecules prevent dissociation of the MHC complexes. To determine the yield of the exchange reaction, an ELISA was performed based on the detection of the light chain (β2m) of stabilized MHC complexes. The assay was performed as generally described in Rodenko et al. (Rodenko et al., 2006).
(§2) 96 well MAXISorp plates (NUNC) were coated over night with 2 μg/ml streptavidin in PBS at room temperature, washed 4× and blocked for 1h at 37° C. in 2% BSA containing blocking buffer. Refolded HLA-A*02:01/MLA-001 monomers served as standards, covering the range of 15-500 ng/ml. Peptide-MHC monomers of the UV-exchange reaction were diluted 100-fold in blocking buffer. Samples were incubated for 1 h at 37° C., washed four times, incubated with 2 μg/ml HRP conjugated anti-β2m for 1h at 37° C., washed again and detected with TMB solution that is stopped with […]. Absorption was measured at 450 nm. Candidate peptides that show a high exchange yield (preferably higher than 50%, most preferred higher than 75%) are generally preferred for a generation and production of antibodies or fragments thereof, and/or T cell receptors or fragments thereof, as they show sufficient avidity to the MHC molecules and prevent dissociation of the MHC complexes.

Row | Binder | peptide exchange yield
1 | VHDFTLPSW | 20 to 50%
2 | GYIDDVTLI | 50 to 75%
3 | VFHDHTYHL | ≥ 75%
4 | IYPDASLLIQNI | ≥ 75%
5 | NYLLYVSDF | ≥ 75%
6 | IYNFRLWDF | ≥ 75%
7 | FFQDSTFSF | ≥ 75%
8 | IFDETGRF | 20 to 50%
9 | YWDETLKEF | 50 to 75%
10 | KLTDNSNQF | 20 to 50%
11 | FFTDKTLSF | ≥ 75%
12 | FYDNSVIIF | 20 to 50%
13 | SYDETKIKF | 10 to 20%

Molecular target: T2, HLA-A*01:01 (human)
T2 construct: Peptide-receptive MHC class I monomer after UV cleavage of a UV-sensitive ligand; captured on streptavidin plates, detected with anti-b2m
Experiment: as above
Text: as §1, §2

Row | Binder | peptide exchange yield
14 | FTDTSSYEY | ≥ 75%
15 | EVEGVIDGTYDY | ≥ 75%
16 | GQYDDSLQAY | 20 to 50%
17 | MTDVDRDGTTAY | ≥ 75%
18 | ITDDTVQTY | ≥ 75%
19 | YIDDVTLI | 20 to 50%
20 | HVDNSNLNY | ≥ 75%
21 | TSDTSQYDTY | 50 to 75%
22 | HVSDVTVNY | 20 to 50%
23 | RSLDCTVKTY | 50 to 75%
24 | HADLTTLTF | 20 to 50%
25 | LSDLTCNNY | ≥ 75%
26 | VTQDDTGFY | ≥ 75%
27 | RSIDVTGQGF | 20 to 50%
28 | ITDTSLNLF | ≥ 75%
29 | PSDLSVFTSY | ≥ 75%
30 | TANYDTSHY | 20 to 50%
31 | GTDQTGKGLEY | 50 to 75%
32 | GTDKQDSTLRY | ≥ 75%
33 | ISDGMDSSAHY | ≥ 75%
34 | ISDITEKNSGLY | ≥ 75%

Row | Binder | peptide exchange yield
35 | WSDWSNPAY | ≥ 75%
36 | VTDVTEEHY | ≥ 75%
37 | WLDRSTILY | ≥ 75%
38 | EVQDHSTSSY | 20 to 50%
39 | RVDDITDQF | 20 to 50%
40 | HVKDATMGY | 50 to 75%
41 | LSDLSLADI | 20 to 50%
42 | PSDGSMHNY | ≥ 75%
43 | ILFSDSTRLSF | 50 to 75%
44 | LTNDQTLRL | 50 to 75%
45 | GVDDTSLLY | ≥ 75%
46 | ILPDITTTY | 20 to 50%
47 | FTDLITDESINY | ≥ 75%
48 | TFVDASRTLY | ≥ 75%
49 | QVDGSLLVI | 20 to 50%
50 | YSIDVTNVM | 50 to 75%
51 | LTEVEKDATALY | ≥ 75%
52 | VTRDDTASY | 20 to 50%
53 | NHITDTSLNLF | 20 to 50%
54 | VTETMGIDGSAY | ≥ 75%
